Assay results published in article doi:10.1101/365775 (bioRxiv, 2018).

Target: the molecule itself
Experiment: SEC

B1: Sec18_(His8) (natural protein, yeast, UniProt P18759 1-758, looked up)
chain: MFKIPGFGKAAANHTPPDMTNMDTRTRHLKVSNCPNNSYALANVAAVSPNDFPNNIYIIIDNLFVFTTRHSNDIPPGTIGFNGNQRTWGGWSLNQDVQAKAFDLFKYSGKQSYLGSIDIDISFRARGKAVSTVFDQDELAKQFVRCYESQIFSPTQYLIMEFQGHFFDLKIRNVQAIDLGDIEPTSAVATGIETKGILTKQTQINFFKGRDGLVNLKSSNSLRPRSNAVIRPDFKFEDLGVGGLDKEFTKIFRRAFASRIFPPSVIEKLGISHVKGLLLYGPPGTGKTLIARKIGTMLNAKEPKIVNGPEILSKYVGSSEENIRNLFKDAEAEYRAKGEESSLHIIIFDELDSVFKQRGSRGDGTGVGDNVVNQLLAKMDGVDQLNNILVIGMTNRKDLIDSALLRPGRFEVQVEIHLPDEKGRLQIFDIQTKKMRENNMMSDDVNLAELAALTKNFSGAEIEGLVKSASSFAINKTVNIGKGATKLNTKDIAKLKVTREDFLNALNDVTPAFGISEEDLKTCVEGGMMLYSERVNSILKNGARYVRQVRESDKSRLVSLLIHGPAGSGKTALAAEIALKSGFPFIRLISPNELSGMSESAKIAYIDNTFRDAYKSPLNILVIDSLETLVDWVPIGPRFSNNILQMLKVALKRKPPQDRRLLIMTTTSAYSVLQQMDILSCFDNEIAVPNMTNLDELNNVMIESNFLDDAGRVKVINELSRSCPNFNVGIKKTLTNIETARHDEDPVNELVELMTQSA
With B1 the “stoichiometry N” value was 6.
